Data taken from the supplement of paper PMC12042874.
± gives the uncertainty stated by the source.

Assay: amyloid nucleation score (Sup35N fusion, yeast selection) (log enrichment); library NNK3; higher = more nucleation; inactive = no reads after selection
Procedure, shortened: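 The nucleation score equals the log enrichment of output over input reads from DiMSum, centred on the mode score of non-aggregating sequences. It was computed only for sequences with 100 or more input reads. The reads came from Illumina sequencing of plasmid inserts from psi-negative yeast expressing Sup35N fused to peptides of 20 random codons, induced with 100 μM copper sulfate for 24 hours and grown 7 days at 30°C without adenine and uracil.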

Row | Substance | amyloid nucleation score
1 | DSVVRTSQMSVGYMCVRAEF | inactive
2 | RGYSANWNLMVAVTCGTIH | -0.422 ± 0.71
3 | DCRAIVLRL | inactive
4 | YHEGLYCGWSYNNCYLTFIG | 0.821 ± 0.25
5 | HEGPKKEGLLAYVKVKRLRR | inactive
6 | LYNVMGLALASLAISNLRDK | inactive
7 | CCRLDDIRQ | inactive
8 | VSVYRRLGHIVLVIVITLAS | inactive
9 | ILTGILDFFFGTSNSRYRNG | inactive
10 | LCSYGVGWD | inactive
11 | TFLWY | inactive
12 | NEVMGFFNDQWRMIWWGYPR | inactive
13 | WILYSMMQLSMMFKSMYSVT | inactive
14 | VYNRRYKSNRNIYSHGNRLK | 1.54 ± 0.1
15 | GQWLSDTR | inactive
16 | RSLFHSAFEFRFLGLTECTY | inactive
17 | CKVHECHVPAG | inactive
18 | RAYFGCFQGFILLFSYLMC | inactive
19 | CIYWLEF | 1.57 ± 0.084
20 | SLLDGTYYNTI | inactive
21 | RMFNDSLNRV | inactive
22 | WVIRELTWITWIVLADLS | inactive
23 | PVFQLNNFTYMRVPCLRGLN | inactive

Row | Substance | amyloid nucleation score
24 | MSFEYSPQGSILYGPSRNIY | inactive
25 | VEMGVLSGFK | -0.288 ± 0.75
26 | WNLSSFININPSYYSDTWHG | 2.08 ± 0.071
27 | FSSIMSFVVYSRKLLEVTSP | inactive
28 | GTDSFAIYSWKIRLLSERYP | inactive
29 | VCSHGFCACCRNNKDETWCD | -0.331 ± 0.66
30 | VTNSFSIFSGIIVHSTSLMV | 0.032 ± 0.6
31 | RAVTSWYVVRWFIRYNTSNA | inactive
32 | SSYVLNYIHLSG | 1.88 ± 0.08
33 | DRGRMCMNAFPFLCWIWFHG | inactive
34 | FFSSGVVRQAYVLVAEDNVS | inactive
35 | FRSTCTFHCMERSRLRISPK | inactive
36 | PLLLHVST | inactive
37 | GTWSVMCSYEPMAR | inactive
38 | TRWHDGKRVSWKSTPNMLSV | inactive
39 | SSGLMLWFDWLLVWRGCRLR | inactive
40 | PLESSWSK | inactive
41 | LLQSLGGKESNLGK | inactive
42 | SYLVRCVARNLLCFERVRGS | inactive
43 | DILGVCLSMNYWVI | inactive
44 | NNMLIGVRSVRAYKWFMHCV | inactive
45 | NWFPGTRGRLLQVTLGYLVD | inactive
46 | AIVESKPYLRSVL | inactive

Row | Substance | amyloid nucleation score
47 | NLWLECNLESSQRSSLFTKL | inactive
48 | VTLFAMPRNL | inactive
49 | KFEGLF | inactive
50 | VEMFNITAYTIKSLRVIGLV | inactive
51 | HLSRNVRLS | inactive
52 | RLMVL | inactive
53 | FMRGTVLKTRNYRFRQAHEE | inactive
54 | SLLYFLRNVKC | inactive
55 | KSICELVIRRNFVSLNIATY | -0.336 ± 0.7
56 | FVRANYIWWNSWYLECYIGR | inactive
57 | PIVRRKSPPRHYENELRGYS | inactive
58 | TPYQYFFRNCWKMSYRRAKI | inactive
59 | KNDGKEF | inactive
60 | YTMLFLLLSWNVFFISWCCF | inactive
61 | FGEVNIAYRMIMRMSGQGGK | 0.998 ± 0.17
62 | MLLIVTSCYISAPNAVSPGW | -0.563 ± 0.84
63 | WWTNLATPAKNQS | inactive
64 | VGLWVAYYGRETNRVDNYVT | inactive
65 | FNKVRWSRVTGTFWKVLIRV | inactive
66 | NKVCLDTSAVYYSFRDKDG | inactive
67 | KCNPVINFLWEMVLSDVFPL | inactive
68 | VLIMRCLKWFASMLCFSIPK | inactive
69 | MRRGEDCVV | inactive

Row | Substance | amyloid nucleation score
70 | WANMTFTELSYIK | inactive
71 | QLLVF | -1.23 ± 1.9
72 | NTNRLFNSLRTKLGFCFYSF | inactive
73 | SVASRTSEGTGYSCIIRVFH | inactive
74 | LVALVRECT | inactive
75 | QWSNCDMASAYYAYRNLNAD | inactive
76 | RGVIPLNSKCKL | inactive
77 | ISIETGWRNHFTSVPACMLH | inactive
78 | LKCSR | inactive
79 | DDHLGKVGSGFRIGICTLQN | inactive
80 | FFRIVSLCSSPGNGEDKDRL | inactive
81 | SCRLSISFTGAGNVRCAKMM | inactive
82 | SFNNININIVVFNVAPFSVH | 2.51 ± 0.082
83 | VSLLSVCGCDRRVFEVWHYG | 0.446 ± 0.2
84 | TTLQEDGYRDACGYMASVFW | inactive
85 | VRWQYVYMPPA | inactive
86 | TTDCIESVRDG | -0.659 ± 1.4
87 | KTYPTLCILCVDMLLRKRGV | inactive
88 | GYKIW | inactive
89 | GGCHNGCGFYCRRN | inactive
90 | NMQGLRFSRKCCEHRGFYIC | inactive
91 | YQNIDYMKGYKVISKD | inactive
92 | NYYNLYCLTVLQKRLQAGMQ | inactive

Row | Substance | amyloid nucleation score
93 | SKSARVLSFYYPYFFISINL | inactive
94 | SFERSSSSST | inactive
95 | RFAPFMRGM | -0.784 ± 1.5
96 | NFCNLLFR | inactive
97 | NVFLRNLA | inactive
98 | FLVYLRR | 1.17 ± 0.11
99 | DWATFNLIKAVYLRRCSCGL | inactive
100 | LCITIVSRWVVGVFHQMFYT | -0.219 ± 0.68
101 | LYVVCKLSHRPHNAWEKRVP | 0.315 ± 0.29
102 | TLYKSGGEFHYKGLALKSKC | inactive
103 | QRFPKCI | inactive
104 | DVNCALYGKGLDVCRI | inactive
105 | RVIKVGHMFKWSRAVGGGKT | -0.514 ± 1.7
106 | HILWHTSSSGELLPMSP | inactive
107 | GRMWSACLGYMWGCFWREFW | inactive
108 | TMYVCWSMFEAIWDINHNTS | -0.26 ± 0.64
109 | SVPDTLSDFISCPVNCTFLN | inactive
110 | IIFFYGGS | 1.9 ± 0.08
111 | ECLLPKIAMHVKRMVPQFGT | inactive
112 | SWKGGLQTDDGSKGS | inactive
113 | TYLRLTWIDCYSPCFKSNAI | 2.43 ± 0.061
114 | SIRLGNNSWPVATSVKWHSV | inactive
115 | LTYTYGVGVMIGIITHRLVC | inactive

Row | Substance | amyloid nucleation score
116 | GCTDIHASEH | inactive
117 | DLRALPKVFLMLDKYSIMSG | inactive
118 | GLYVVYFNILTTKGYQLIVM | inactive
119 | VRSRRLLCKNRTVVEARNVV | inactive
120 | WTNSSQHLSESLWYVDYCQG | inactive
121 | KTLVIYYTFKIGNILHIHLF | inactive
122 | SGSWHKH | inactive
123 | WSAIVDSWCDSSRRVEIVVR | inactive
124 | IATCTRFIDYVYRDVSSGPC | 0.725 ± 0.11
125 | TEDHH | inactive
126 | RALLTGWTMSRPGLFIIATS | -0.273 ± 1.1
127 | FFNIYLVRNSYQKTCAGLTR | 2.05 ± 0.091
128 | SIRVSVMFNIRKKVFDLQRF | inactive
129 | WVPKFYRLGSDTWSSVSLDV | inactive
130 | WISIVQW | inactive
131 | RNKHYVGRQSVSDSRVLSIV | inactive
132 | PMMVWFSNFLYVASMGPDSF | inactive
133 | GIREAV | inactive
134 | RRAMIGIFSITVRFADNGWK | inactive
135 | FLYAFLPWRCVKNFFCSKVL | inactive
136 | ACTLDTLFSFVPSHNWSGQK | inactive
137 | HVGCLIYDIQCETPGSHPSR | inactive
138 | LEREDGVHWLMEEWVWCVDW | inactive

Row | Substance | amyloid nucleation score
139 | FWWVKC | inactive
140 | WFVYALMNRLEYSKAYFPML | inactive
141 | LCFNR | inactive
142 | TQRRFMYMAFNQYMSQSSSR | inactive
143 | FDMVFVLENRLYRSMANLSF | inactive
144 | QFMNKIIMCLGSF | -0.263 ± 0.58
145 | PNISGGDAIEGLFFFRVGRE | 1.04 ± 0.14
146 | PSLRLQTTDILHKNSNY | inactive
147 | ANNPLLG | inactive
148 | IITVSGPLVVLVLSGKGSNN | 2.42 ± 0.062
149 | LRYSVEAFTRDDLTESSQVV | inactive
150 | HKDICLNFSVDHLDVMSQCA | inactive
151 | SNYVMKVYRACHQVQPTISA | inactive
152 | SGTNNIVLLGHFVDFLEGVL | inactive
153 | FLWVAANLDFVYDEREHIRG | inactive
154 | IFSNLGVVNLCRACFKYSNI | 2.92 ± 0.059
155 | RKLFGSHS | inactive
156 | SISRLVISF | inactive
157 | RFFVNL | inactive
158 | TCAPMTITFSCHNNLFKC | 2.65 ± 0.058
159 | LLLDNITLGLWEFIRYRCGW | inactive
160 | MDRIYLHISVEVSASFMSDA | inactive
